Measured values reported in patent publication US20100158968A1.

Assays:
[1] = molecular target: PKCδ (h) (protein kinase C) (human), Q05655; test: cell-based or functional assay
[2] = molecular target: mitogen-activated protein kinase-activated protein kinase 2 (human MK2) (human), P49137; test: kinase inhibition, radiometric assay; conditions: modification not given
Sequence of mitogen-activated protein kinase-activated protein kinase 2 (human MK2) (human), P49137 (P49137 46-400): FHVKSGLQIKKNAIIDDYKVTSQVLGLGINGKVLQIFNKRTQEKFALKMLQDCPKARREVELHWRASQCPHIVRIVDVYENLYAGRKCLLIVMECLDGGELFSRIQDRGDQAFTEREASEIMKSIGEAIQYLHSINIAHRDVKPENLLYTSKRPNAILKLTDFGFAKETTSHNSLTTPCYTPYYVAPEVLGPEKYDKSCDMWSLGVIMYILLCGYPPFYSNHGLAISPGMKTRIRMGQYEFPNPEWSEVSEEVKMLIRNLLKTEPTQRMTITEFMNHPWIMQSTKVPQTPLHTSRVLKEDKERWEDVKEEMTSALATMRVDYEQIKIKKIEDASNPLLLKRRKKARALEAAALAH

Sequence of PKCδ (h) (protein kinase C) (human), Q05655 (Q05655 whole entry, stated change not applied): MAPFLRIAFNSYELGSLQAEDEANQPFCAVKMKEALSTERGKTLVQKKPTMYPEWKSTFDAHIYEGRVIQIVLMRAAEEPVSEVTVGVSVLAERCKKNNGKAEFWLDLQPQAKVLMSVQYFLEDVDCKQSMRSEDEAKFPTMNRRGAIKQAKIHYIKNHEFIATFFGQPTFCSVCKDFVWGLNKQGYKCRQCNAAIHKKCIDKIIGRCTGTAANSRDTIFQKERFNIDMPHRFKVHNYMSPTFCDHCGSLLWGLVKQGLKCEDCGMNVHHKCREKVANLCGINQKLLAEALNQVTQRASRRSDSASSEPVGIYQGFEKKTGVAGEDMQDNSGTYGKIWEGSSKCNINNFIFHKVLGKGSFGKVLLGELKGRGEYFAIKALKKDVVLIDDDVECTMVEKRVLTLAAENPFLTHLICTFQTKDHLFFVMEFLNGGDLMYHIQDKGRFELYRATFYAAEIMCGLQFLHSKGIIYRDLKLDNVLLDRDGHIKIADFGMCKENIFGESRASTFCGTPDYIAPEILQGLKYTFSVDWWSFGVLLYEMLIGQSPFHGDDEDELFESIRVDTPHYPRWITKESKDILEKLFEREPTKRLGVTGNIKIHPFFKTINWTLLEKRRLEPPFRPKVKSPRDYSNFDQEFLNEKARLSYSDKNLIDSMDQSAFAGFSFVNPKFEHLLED

B1: … (peptide)
peptide: YARAAARQARALNRQLGVAA
Kinase Activity, peptide at 300 µM, radiometric assay [1]: 105%

B2: … (peptide)
chain: YARAAARQARAKALARQLAVA
IC50 [2]: 28.4 µM

B3: … (peptide)
chain: YARAAARQARAKALNRQLAVA
IC50 [2]: 18.9 µM

B4: … (peptide)
peptide: YARAAARQARALARQLGVAA
Kinase Activity, peptide at 300 µM, radiometric assay [1]: 101%

B5: … (peptide)
peptide: FAKLAARLYRLARQLGVAA
Kinase Activity, peptide at 100 µM, radiometric assay [1]: 40%

B6: … (peptide)
chain: FAKLAARLYRKALARQLGVAA
IC50 [2]: 1.77 µM

B7: … (peptide)
chain: WLRRIKAWLRRIKALNRQLGVAA
IC50 [2]: 0.737 µM | Kinase Activity, peptide at 30 µM, radiometric assay [1]: 11%

B8: … (peptide)
peptide: KAFAKLAARLYRLARQLGVAA
Kinase Activity, peptide at 100 µM, radiometric assay [1]: 24%
